Paper PMC1525162 (BMC Pharmacology, 2006)
“Also recorded” adds a separate entry of the source. Bridge positions count the residues as written; N and C are the ends. Ends that are not written are not given here. Peptide text beside a SMILES is read from it.

Key:
[1] = tested on: wild type and L24A, L34A, L24A,L34A CLR-RAMP1 (HEK293T-RAMP1 cells); experiment: cAMP generation, wild type and leucine mutant CLRs compared
[2] = molecular target: wild type CLR-RAMP1 (transiently transfected HEK293T-RAMP1 cells) (Homo sapiens, UniProt O60894+Q16602); experiment: cAMP generation, wild type CLR; type: cell-based
[3] = tested on: L24A, L34A and L24A,L34A CLR-RAMP1 heterodimers versus wild type; experiment: Competition/saturation binding, leucine mutant CLRs compared with wild type; set-up: species or system human; conditions: L34A, L24A,L34A vs wild type CLR
Protocol: (§1) A crude cell membrane preparation was prepared as previously described. Briefly, HEK293T-RAMP1 membranes were prepared by scraping and transferring cells to a 50 mL conical tube using cold HBSS followed with two washings by centrifugation at 1000 × g using cold HBSS. The intact cell pellet was resuspended in 10 mL of 0.25 M sucrose containing a protease inhibitor cocktail consisting of 10μg/mL benzamidine, 10μg/mL leupeptin, and 20μg/mL phenylmethysulfonylfluoride. The cells were disrupted by freezing followed by Dounce homogenization of the thawed suspension using 20 strokes from a loose fitting (B) pestle. This mixture was then centrifuged at 1260 × g for 5 min at 4°C. Buffer A (20 mM HEPES, pH 7.5, 1.4 mM EGTA, 12.5 mM MgCl2, 10μg/mL benzamidine, 10μg/mL leupeptin, and 20μg/mL phenylmethysulfonylfluoride) was added to the supernatant and centrifuged again at 30,000 × g for 15 min at 4°C. The resultant pellet was kept, resuspended in buffer A then centrifuged once more at 30,000 × g for 15 min at 4°C. The final crude membrane pellet was resuspended in buffer A containing 10% glycerol and stored in aliquots at -70°C until used for radioligand binding. Protein concentrations were measured using the method of Bradford.
The radioligand binding protocol used for this study was performed as previously described. […] Binding was stopped by filtering the membranes though Whatman GF/C glass fiber filters, followed by 5 – 5 mL washes with cold buffer B (20 mM HEPES, pH 7.5, 1.4 mM EGTA, 12.5 mM MgCl2) to remove any unbound drug. Amounts of total and non-specific radiolabel bound to cell membranes were calculated from radioactive counts remaining on the glass fiber filters.

[4] = molecular target: wild type CLR-RAMP1 heterodimer (HEK293T-RAMP1 membranes) (Homo sapiens, UniProt O60894+Q16602); experiment: Competition radioligand binding, wild type CLR; conditions: compared to Ki of CGRP
Protocol: as §1, with “The final crude membrane pellet was resuspended in buffer A containing 10% glycerol and stored in aliquots at -70°C until used for radioligand binding.” left out
The radioligand binding protocol used for this study was performed as previously described. […] Amounts of total and non-specific radiolabel bound to cell membranes were calculated from radioactive counts remaining on the glass fiber filters.

CGRP receptor = conditions: cited from earlier work
Source text: Briefly, this 37 amino acid neuropeptide can be divided into two distinct domains based upon its binding and agonistic properties for the receptor. […] Specifically, loss of the disulfide bridge connecting amino acids 2 and 7 negates all biological activity of the endogenous neuropeptide.

[5] = molecular target: CLR-RAMP1 heterodimer, wild type calcitonin-like receptor (CLR) with receptor-activity-modifying protein-1 (RAMP1) (UniProt Q16602); experiment: radioligand binding; saturation binding: increasing [125I-Tyr]CGRP(8–37) on crude membranes of transiently transfected HEK293T-RAMP1 cells, 37°C, buffer A (20 mM HEPES pH 7.5, […] EGTA, 12.5 mM MgCl2, protease inhibitors) plus 0.1% BSA, 1 μM CGRP for non-specific binding, filtration on GF/C filters
[6] = molecular target: CLR-RAMP1 heterodimer with the L34A CLR mutant (UniProt Q16602); experiment: as above
[7] = molecular target: CLR-RAMP1 heterodimer with the L24A CLR mutant (UniProt Q16602); experiment: as above
[8] = molecular target: CLR-RAMP1 heterodimer with the L24A,L34A CLR double mutant (UniProt Q16602); experiment: as above
[9] = molecular target: T1, CLR-RAMP1 heterodimer with the L24A CLR mutant, Q16602; experiment: radioligand binding; competition: increasing unlabeled peptide against specific [125I-Tyr]CGRP(8–37) binding on crude membranes of transiently transfected HEK293T-RAMP1 cells, same buffer as the saturation binding; Ki from IC50 by the method of Cheng and Prusoff
T1 chain 1: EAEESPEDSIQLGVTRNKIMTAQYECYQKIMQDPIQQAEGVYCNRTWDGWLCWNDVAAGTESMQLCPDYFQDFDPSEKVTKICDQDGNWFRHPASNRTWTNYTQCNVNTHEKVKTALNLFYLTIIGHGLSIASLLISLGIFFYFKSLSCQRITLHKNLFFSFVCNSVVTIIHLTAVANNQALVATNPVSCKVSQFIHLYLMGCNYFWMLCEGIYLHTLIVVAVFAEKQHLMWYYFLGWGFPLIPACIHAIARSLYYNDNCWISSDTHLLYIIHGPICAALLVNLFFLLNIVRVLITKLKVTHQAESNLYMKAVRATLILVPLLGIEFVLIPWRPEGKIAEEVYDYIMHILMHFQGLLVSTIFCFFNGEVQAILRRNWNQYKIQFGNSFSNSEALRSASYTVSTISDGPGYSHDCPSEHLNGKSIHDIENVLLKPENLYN
T1 chain 2: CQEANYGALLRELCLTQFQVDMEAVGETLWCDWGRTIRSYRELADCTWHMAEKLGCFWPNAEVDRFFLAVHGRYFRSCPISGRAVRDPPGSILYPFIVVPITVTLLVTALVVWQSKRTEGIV

[10] = molecular target: T2, CLR-RAMP1 heterodimer with the L24A,L34A CLR double mutant, Q16602; experiment: as above
T2 chain 1: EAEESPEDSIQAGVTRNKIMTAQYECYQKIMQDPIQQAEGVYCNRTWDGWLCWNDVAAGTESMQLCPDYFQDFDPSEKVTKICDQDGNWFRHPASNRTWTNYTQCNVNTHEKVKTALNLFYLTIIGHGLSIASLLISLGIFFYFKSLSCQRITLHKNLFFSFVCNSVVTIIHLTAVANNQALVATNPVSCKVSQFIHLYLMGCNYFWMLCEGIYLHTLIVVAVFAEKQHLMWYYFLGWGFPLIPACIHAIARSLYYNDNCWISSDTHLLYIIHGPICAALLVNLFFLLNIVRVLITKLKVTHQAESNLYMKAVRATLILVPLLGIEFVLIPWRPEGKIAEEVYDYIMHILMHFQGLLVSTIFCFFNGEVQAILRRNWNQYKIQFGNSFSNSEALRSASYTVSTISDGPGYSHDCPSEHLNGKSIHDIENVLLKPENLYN
T2 chain 2: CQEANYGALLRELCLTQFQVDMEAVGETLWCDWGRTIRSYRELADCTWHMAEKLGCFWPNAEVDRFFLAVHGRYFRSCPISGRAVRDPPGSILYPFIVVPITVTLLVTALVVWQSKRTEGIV

[11] = molecular target: T3, CLR-RAMP1 heterodimer, wild type calcitonin-like receptor (CLR) with receptor-activity-modifying protein-1 (RAMP1), Q16602; experiment: as above
T3 chain 1: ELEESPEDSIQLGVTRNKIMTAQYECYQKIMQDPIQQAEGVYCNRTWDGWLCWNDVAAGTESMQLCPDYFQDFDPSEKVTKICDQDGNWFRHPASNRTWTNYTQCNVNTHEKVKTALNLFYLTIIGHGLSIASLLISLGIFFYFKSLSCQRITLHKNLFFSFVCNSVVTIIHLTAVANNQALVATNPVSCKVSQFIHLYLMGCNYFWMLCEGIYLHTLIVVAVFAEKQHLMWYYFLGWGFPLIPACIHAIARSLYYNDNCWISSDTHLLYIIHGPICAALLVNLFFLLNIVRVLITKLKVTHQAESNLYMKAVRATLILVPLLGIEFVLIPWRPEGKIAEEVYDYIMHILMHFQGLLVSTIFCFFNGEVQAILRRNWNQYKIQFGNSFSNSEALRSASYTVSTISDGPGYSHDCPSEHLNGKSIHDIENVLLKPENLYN
T3 chain 2: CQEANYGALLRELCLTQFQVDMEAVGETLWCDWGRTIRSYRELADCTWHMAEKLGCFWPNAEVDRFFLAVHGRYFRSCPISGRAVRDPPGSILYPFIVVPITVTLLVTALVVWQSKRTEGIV

[12] = molecular target: T4, CLR-RAMP1 heterodimer with the L34A CLR mutant, Q16602; experiment: as above
T4 chain 1: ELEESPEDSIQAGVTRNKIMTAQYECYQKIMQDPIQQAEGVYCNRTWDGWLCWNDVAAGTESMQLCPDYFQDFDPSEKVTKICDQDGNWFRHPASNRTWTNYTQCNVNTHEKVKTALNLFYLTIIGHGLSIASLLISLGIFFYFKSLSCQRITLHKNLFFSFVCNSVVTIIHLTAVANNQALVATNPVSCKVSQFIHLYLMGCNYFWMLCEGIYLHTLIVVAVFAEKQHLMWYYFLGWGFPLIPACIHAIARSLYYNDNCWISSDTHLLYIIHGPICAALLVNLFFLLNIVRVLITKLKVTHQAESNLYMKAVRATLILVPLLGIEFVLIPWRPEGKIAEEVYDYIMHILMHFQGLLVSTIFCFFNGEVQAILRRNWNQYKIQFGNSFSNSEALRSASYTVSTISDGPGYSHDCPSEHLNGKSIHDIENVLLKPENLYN
T4 chain 2: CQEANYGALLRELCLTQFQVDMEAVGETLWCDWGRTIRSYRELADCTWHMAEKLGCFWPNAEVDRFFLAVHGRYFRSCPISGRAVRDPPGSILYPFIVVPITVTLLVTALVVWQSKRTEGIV

[13] = molecular target: T1, CLR-RAMP1 heterodimer with the L24A CLR …
[14] = molecular target: T2, CLR-RAMP1 heterodimer with the …
[15] = molecular target: T3, CLR-RAMP1 heterodimer, wild type …
[16] = molecular target: T4, CLR-RAMP1 heterodimer with the L34A CLR …

## CC(C)C[C@H](NC(=O)CNC(=O)[C@H](C)NC(=O)[C@H](CC(C)C)NC(=O)[C@H](CCCNC(=N)N)NC(=O)[C@H](Cc1c[nH]cn1)NC(=O)[C@@H](NC(=O)[C@@H](NC(=O)[C@@H]1CSSC[C@H](NC(=O)[C@H](C)N)C(=O)N[C@@H](CC(=O)O)C(=O)N[C@@H]([C@@H](C)O)C(=O)N[C@@H](C)C(=O)N[C@@H]([C@@H](C)O)C(=O)N1)C(C)C)[C@@H](C)O)C(=O)N[C@@H](CC(C)C)C(=O)N[C@@H](CO)C(=O)N[C@@H](CCCNC(=N)N)C(=O)N[C@@H](CO)C(=O)O [CGRP(1–19)] (H-ACDTATCVTHRLAGLLSRS-OH; disulfide 2-7 (inferred); N-terminus assumed)
[1]; L24A, L34A, L24A,L34A vs wild type CLR
  cAMP potency at leucine mutants compared with wild type: no different; also recorded: no significant potency differences
[2]; CGRP(1–36) compared with CGRP, CGRP(1–19) compared with CGRP(1–36) and CGRP
  maximal cAMP response: appreciably less
[2]; compared to CGRP
  cAMP potency compared with CGRP, wild type: considerably less; also recorded: significantly less
[3]
  affinity at leucine mutants compared with wild type: analogous to values calculated for all leucine CLR mutations
[4]
  affinity for wild type CLR compared with CGRP: significant loss of CGRP(1–19) affinity

## CGRP(8–37)
[1]; 1μM CGRP(8–37) preincubated 30 min before 10μM CGRP(1–36), wild type and leucine CLR mutants
  antagonism of cAMP response to CGRP(1–36): abolished the activity of 10μM CGRP(1–36); also recorded: blocked to basal levels
CGRP receptor; N-terminal truncated peptide
  CGRP receptor affinity and activity: effective CGRP receptor antagonist having a high affinity for the receptor but devoid of any biological activity in itself

## [125I-Tyr]CGRP(8–37) (peptide)
[5]
  Kd: 0.9 nM
[6]
  Kd: 9 nM
[7]
  Kd: 9 nM
[8]
  Kd: 9 nM

## des-F37-CGRP: CGRP with deletion of the C-terminal phenylalanine at position 37 (ACDTATCVTHRLAGLLSRSGGVVKNNFVPTNVGSKA-NH2; disulfide 2-7 (inferred); ends not checked; UniProt P06881 83-119, looked up, variant F37*)
CGRP receptor; not due to disruption of ligand structure
  affinity for native receptor compared with endogenous neuropeptide: affinity loss

## ACDTATCVTHRLAGLLSRS (modifications not checked) [CGRP(1–19)]
[9]
  Ki: > 10000 nM
[10]
  Ki: > 10000 nM
[11]
  Ki: > 10000 nM
[12]
  Ki: > 10000 nM
[13]
  EC50 of cAMP generation in transiently transfected HEK293T-RAMP1 cells: 2400 nM
[14]
  EC50 of cAMP generation in transiently transfected HEK293T-RAMP1 cells: 1600 nM
[15]
  EC50 of cAMP generation in transiently transfected HEK293T-RAMP1 cells: 2100 nM
[16]
  EC50 of cAMP generation in transiently transfected HEK293T-RAMP1 cells: 2200 nM
